How the values were obtained:
[1] = test system: T1, CCCC(=O)Oc1ccc([N+](=O)[O-])cc1; assay: p-nitrophenol release, Lineweaver-Burk plot; assay type: biochemical, uncultured bacterium; details: 50 mM Tris-HCl pH 8.0, 100 mM NaCl, 30 °C, 0.1-1.25 mM substrate
T1 construct: dimer ~70 kDa; residues Cys49 and Cys207
Description: p-nitrophenol release, Lineweaver-Burk plot on PMGL3

[2] = biological target: PMGL3 mutant C49V (not stated (permafrost metagenomic library)); assay: SEC; Superdex 75 10/300 GL, 0.4 mL/min, 100 mM Tris-HCl pH 8.0, 150 mM NaCl; sample after incubation for 1 h at 40 °C; column calibrated with 29-669 kDa standards
[3] = biological target: PMGL3 mutant C49V (not stated (permafrost metagenomic library)); assay: SEC; Superdex 75 10/300 GL, 0.4 mL/min, 100 mM Tris-HCl pH 8.0, 150 mM NaCl; fresh sample before heating; column calibrated with 29-669 kDa standards
[4] = biological target: PMGL3 mutant C207F (not stated (permafrost metagenomic library)); assay: SEC; Superdex 75 10/300 GL, 0.4 mL/min, 100 mM Tris-HCl pH 8.0, 150 mM NaCl; sample after incubation for 1 h at 40 °C; column calibrated with 29-669 kDa standards
[5] = biological target: PMGL3 mutant C207F (not stated (permafrost metagenomic library)); assay: SEC; Superdex 75 10/300 GL, 0.4 mL/min, 100 mM Tris-HCl pH 8.0, 150 mM NaCl; fresh sample before heating; column calibrated with 29-669 kDa standards
[6] = biological target: cold-active esterase PMGL3 (wild type) (not stated (permafrost metagenomic library)); assay: SEC; Superdex 75 10/300 GL, 0.4 mL/min, 100 mM Tris-HCl pH 8.0, 150 mM NaCl; sample after incubation for 1 h at 40 °C; column calibrated with 29-669 kDa standards
[7] = biological target: cold-active esterase PMGL3 (wild type) (not stated (permafrost metagenomic library)); assay: SEC; Superdex 75 10/300 GL, 0.4 mL/min, 100 mM Tris-HCl pH 8.0, 150 mM NaCl; fresh sample before heating; column calibrated with 29-669 kDa standards

Substance	Km [1]	Vmax [1]	kcat [1]	kcat/Km [1]	further results
PMGL3 (unidentified)	980 µM	165000 µM/min/mg	91.5 s⁻¹	93400 M⁻¹ s⁻¹	
PMGL3 (unidentified; C49V)	1290 µM	94700 µM/min/mg	52.6 s⁻¹	40800 M⁻¹ s⁻¹	
PMGL3 (unidentified; C207F)	170 µM	94600 µM/min/mg	52.5 s⁻¹	309000 M⁻¹ s⁻¹	
PMGL3 mutant C49V (enzyme)					stoichiometry N [2]: 4; stoichiometry N [3]: 2
PMGL3 mutant C207F (enzyme)					stoichiometry N [4]: 4; stoichiometry N [5]: 2
cold-active esterase PMGL3 (wild type) (enzyme)					stoichiometry N [6]: 4; stoichiometry N [7]: 2
